Experimental data from publication doi:10.1101/2025.09.24.678339.
Each block holds one substance with its values, some of them ahead of it.

What was measured:
[1] = target: DNMT3A2 D876A, full-length, purified (human); experiment: SEC
[2] = target: DNMT3A2 D876A, full-length, purified (human); experiment: SEC + other: mass photometry
[3] = target: DNMT3A2 D876A/R882H, full-length, purified (human); experiment: SEC
[4] = target: DNMT3A2 L859F/D876A/R882H, full-length, purified (human); experiment: SEC
[5] = target: DNMT3A2 L859F/R882H, full-length, purified (human); experiment: SEC
[6] = target: DNMT3A2 R882H, full-length, purified (human); experiment: SEC
[7] = target: DNMT3A2 wild type, full-length, purified (human); experiment: SEC
[8] = target: DNMT3A2 wild type, full-length, purified (human); experiment: SEC + other: mass photometry

Substance: DNMT3A2 D876A, full-length, purified (enzyme)
stoichiometry N [1]: 2 | stoichiometry N [2]: 2

Substance: DNMT3A2 L859F/R882H, full-length, purified (enzyme)
stoichiometry N [5]: 4

Substance: DNMT3A2 R882H, full-length, purified (enzyme)
stoichiometry N [6]: 4

Further lines, results first:

stoichiometry N [3]: 2
Substance: DNMT3A2 D876A/R882H, full-length, purified (enzyme)

stoichiometry N [4]: 2
Substance: DNMT3A2 L859F/D876A/R882H, full-length, purified (enzyme)

stoichiometry N [7]: 4 | stoichiometry N [8]: 4
Substance: DNMT3A2 wild type, full-length, purified (enzyme)
